According to publication PMC4022583:

Molecular target: fluorescein labelled MPT peptide (UniProt P35579)
Test: fluorescence polarisation; S100A4 variant and fluorescein labelled MPT peptide

Kd | Substance
0.28 nM | S100A4 C-terminal deletion mutant (residues 1-88, Δ13) (from UniProt P26447 1-88) (domain or fragment)
0.12 nM | wild-type S100A4 (from UniProt P26447 1-101) (natural protein)
